These results are taken from patent publication US20100256338A1 (Hoffmann-La Roche, published 2010).

In one assay the target is T1, EGFR-ECD (human, UniProt P00533 25-645).
T1 construct: extracellular domain; also called human EGF-Receptor
Put plainly: SPR (Biacore T100), antibody captured by anti-human IgG, EGFR-ECD as analyte, 25 C. In general terms: Surface plasmon resonance follows binding to a sensor surface in real time, without labels.

Assay [1] addresses T2, IGF-1R (soluble analyte in SPR) (human, UniProt P08069 31-932, limits assumed).
T2 construct: also called human IGF1-Receptor
Nature of the assay: SPR (Biacore T100), antibody captured by anti-human IgG, IGF-1R as analyte, 25 C.

B1: scFab-XGFR2_2720 (bispecific antibody)
chain 1: not shown
chain 2: DIQMTQSPSSLSASVGDRVTITCRASQGINNYLNWYQQKPGKAPKRLIYNTNNLQTGVPSRFSGSGSGTEFTLTISSLQPEDFATYYCLQHNSFPTFGQGTKLEIKRTVAAPSVFIFPPSDEQLKSGTASVVCLLNNFYPREAKVQWKVDNALQSGNSQESVTEQDSKDSTYSLSSTLTLSKADYEKHKVYACEVTHQGLSSPVTKSFNRGEC
Take B1: the Kd (usually the equilibrium constant for the complex coming apart) with EGFR-ECD turned out to be 0.5 nM; in assay [1], 11 nM.

B2: humanized <EGFR>ICR62 (antibody, V domains shown)
VH: QVQLVQSGAEVKKPGSSVKVSCKASGFTFTDYKIHWVRQAPGQGLEWMGYFNPNSGYSTYAQKFQGRVTITADKSTSTAYMELSSLRSEDTAVYYCARLSPGGYYVMDAWGQGTTVTVSS
VL: DIQMTQSPSSLSASVGDRVTITCRASQGINNYLNWYQQKPGKAPKRLIYNTNNLQTGVPSRFSGSGSGTEFTLTISSLQPEDFATYYCLQHNSFPTFGQGTKLEIKR
notes: Humanized rat anti-EGFR antibody, 'wildtype' IgG parent; also called humanized rat anti-EGFR antibody <EGFR>ICR62
Take B2: the Kd with EGFR-ECD amounted to 0.5 nM.
